Experiment in all cases: ITC
For orientation: ITC needs no label: the signal is the heat of the interaction.

For assay [1], the target named is SARS-CoV-2 spike protein receptor-binding domain T478I (SARS-CoV-2) (UniProt P0DTC2).
Assay [2] has as its target SARS-CoV-2 spike protein receptor-binding domain S494P (SARS-CoV-2) (UniProt P0DTC2).
Assay [3] concerns the target SARS-CoV-2 spike protein receptor-binding domain S477N (SARS-CoV-2) (UniProt P0DTC2).
Assay [4] has as its target SARS-CoV-2 spike protein receptor-binding domain Y453F (SARS-CoV-2) (UniProt P0DTC2).
The target in assay [5] is SARS-CoV-2 spike protein receptor-binding domain K417N (SARS-CoV-2) (UniProt P0DTC2).

pKd: −log10 of the molar value.

For “CC12.1 single-chain fragment variable (scFv)”, the pKd is 8.24 in assay [1]; 7.64 in assay [2]; 7.59 in assay [3]; 6.08 in assay [4]; 6.92 in assay [5]. For the same substance, the dH in assay [1] is -5.6 kcal/mol; in assay [2], -6.4 kcal/mol; in assay [3], -5.7 kcal/mol; in assay [4] it was -2.2 kcal/mol; in assay [5], -1.8 kcal/mol.

What is called pKd is −log10 of the Kd, conventionally taken in molar units. A lower pKd goes with a large Kd.
